# In patent US20110009319A1:
# How the values were obtained:
# TGF-b1 = TGF-b1 (UniProt P01137); assay: cell-based or functional assay
# activin-A = activin-A (UniProt P08476); assay: cell-based or functional assay
# activin-A, sequence (P08476 311-426): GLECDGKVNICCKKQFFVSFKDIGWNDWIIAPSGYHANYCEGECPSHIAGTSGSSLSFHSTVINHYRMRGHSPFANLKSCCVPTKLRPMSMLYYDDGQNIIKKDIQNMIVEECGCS
# TGF-b1, sequence (P01137 279-390 limits assumed): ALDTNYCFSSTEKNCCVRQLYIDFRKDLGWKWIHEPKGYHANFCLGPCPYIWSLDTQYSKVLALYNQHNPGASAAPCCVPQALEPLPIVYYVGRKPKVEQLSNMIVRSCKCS
substance,measurement,setting,value
wild type mouse Cripto (from UniProt P51865 18-134) (receptor),3TP-lux luciferase expression induced by TGF-b1 in HepG2 cells (fold reduction),TGF-b1,4
same,FAST2/A3-luciferase induction by 100 pM TGF-b1 in 293T cells (fold reduction),TGF-b1,3
same,3TP-lux luciferase expression induced by activin-A in HepG2 cells (fold reduction),activin-A,4
